Biological target: kallikrein (human, UniProt P03952 20-638)
Sequence (P03952 20-638): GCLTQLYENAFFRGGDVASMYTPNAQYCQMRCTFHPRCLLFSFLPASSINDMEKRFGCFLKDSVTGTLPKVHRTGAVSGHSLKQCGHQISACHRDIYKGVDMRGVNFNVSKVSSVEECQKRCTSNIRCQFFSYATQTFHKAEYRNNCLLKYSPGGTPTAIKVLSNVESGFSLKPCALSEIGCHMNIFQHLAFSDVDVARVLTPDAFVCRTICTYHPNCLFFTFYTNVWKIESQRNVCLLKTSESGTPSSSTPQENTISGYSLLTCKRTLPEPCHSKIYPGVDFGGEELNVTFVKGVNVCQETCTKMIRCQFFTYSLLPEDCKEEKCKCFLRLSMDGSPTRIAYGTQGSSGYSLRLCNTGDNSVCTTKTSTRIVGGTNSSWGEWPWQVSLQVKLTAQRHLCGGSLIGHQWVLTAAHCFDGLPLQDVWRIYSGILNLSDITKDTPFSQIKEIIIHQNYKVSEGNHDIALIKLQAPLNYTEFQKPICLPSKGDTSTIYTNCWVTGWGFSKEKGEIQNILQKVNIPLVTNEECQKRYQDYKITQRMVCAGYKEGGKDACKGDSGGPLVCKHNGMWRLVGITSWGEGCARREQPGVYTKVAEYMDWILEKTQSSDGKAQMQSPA

B1: Boophilin (natural protein)
chain: QRNGFCRLPADEGICKALIPRFYFNTETGKCTMFSYGGCGGNENNFETIEDCQKACGAPERVSDFEGADFKTGCEPAADSGSCAGQLERWFYNVRSGECETFVYGGCGGNDNNYESEEECELVCKNM
modifications: N-terminus blocked (Edman degradation)
Ki: 919 nM
